Test results published in patent US11485769B2, “Peptides and combination of peptides for use in immunotherapy and methods for generating scaffolds for the use against pancreatic cancer and other cancers” (Immatics Biotechnologies GmbH, priority 2015, dated 2022).

target: HLA-A*02:01 (Homo sapiens, UniProt P04439, D140Y/D185E/D98H/E176V/E277Q/G131W/G231S/I119V/I121R/I166T/I218V/L300P/L318F/N151K/N90K/P208A/P217A/Q86G/Q94H/R138H/R169H/T345S); assay: MHC binding assay (UV-ligand exchange, beta2m ELISA, peptide exchange yield); conditions: binding to HLA-A*02:01 ranged by peptide exchange yield, β2m ELISA
Description: Candidate peptides for T cell based therapies according to the present invention were further tested for their MHC binding capacity (affinity). The individual peptide-MHC complexes were produced by UV-ligand exchange, where a UV-sensitive peptide is cleaved upon UV-irradiation, and exchanged with the peptide of interest as analyzed. Only peptide candidates that can effectively bind and stabilize the peptide-receptive MHC molecules prevent dissociation of the MHC complexes. To determine the yield of the exchange reaction, an ELISA was performed based on the detection of the light chain (β2m) of stabilized MHC complexes. The assay was performed as generally described in Rodenko et al. (Rodenko et al., 2006).
96 well MAXISorp plates (NUNC) were coated over night with 2 ug/ml streptavidin in PBS at room temperature, washed 4× and blocked for 1 h at 37° C. in 2% BSA containing blocking buffer. Refolded HLA-A*02:01/MLA-001 monomers served as standards, covering the range of 15-500 ng/ml. Peptide-MHC monomers of the UV-exchange reaction were diluted 100 fold in blocking buffer. Samples were incubated for 1 h at 37° C., washed four times, incubated with 2 ug/ml HRP conjugated anti-μ2m for 1h at 37° C., washed again and detected with TMB solution that is stopped with […]. Absorption was measured at 450 nm. Candidate peptides that show a high exchange yield (preferably higher than 50%, most preferred higher than 75%) are generally preferred for a generation and production of antibodies or fragments thereof, and/or T cell receptors or fragments thereof, as they show sufficient avidity to the MHC molecules and prevent dissociation of the MHC complexes.
MHC class I binding scores. Binding of HLA-class I restricted peptides to HLA-A*02:01 was ranged by peptide exchange yield: ≥10%=+; ≥20%=++; ≥50=+++; >75%=++++

Substance	Peptide exchange (MHC class I binding score)
128 (ALYDVRTILL; listed as Homo sapiens) [compound 128]	“+++” (≥50=+++)
129 (ALYEKDNTYL; listed as Homo sapiens) [compound 129]	“+++” (≥50=+++)
131 (FLIEEQKIVV; listed as Homo sapiens) [compound 131]	“+++” (≥50=+++)
132 (FLWAGGRASYGV; listed as Homo sapiens) [compound 132]	“+++” (≥50=+++)
138 (NIFPNPEATFV; listed as Homo sapiens) [compound 138]	“+++” (≥50=+++)
140 (SLLNPPETLNL; listed as Homo sapiens) [compound 140]	“+++” (≥50=+++)
142 (SLYGYLRGA; listed as Homo sapiens) [compound 142]	“+++” (≥50=+++)
145 (TTFPRPVTV; listed as Homo sapiens) [compound 145]	“+++” (≥50=+++)
146 (VLISGVVHEI; listed as Homo sapiens) [compound 146]	“+++” (≥50=+++)
147 (YAFPKAVSV; listed as Homo sapiens) [compound 147]	“++” (≥20%=++)
148 (YLHNQGIGV; listed as Homo sapiens) [compound 148]	“++” (≥20%=++)
152 (ALLEPEFILKA; listed as Homo sapiens) [compound 152]	“++++” (>75%=++++)
154 (KVADLVLML; listed as Homo sapiens) [compound 154]	“+++” (≥50=+++)
155 (LLLDPDTAVLKL; listed as Homo sapiens) [compound 155]	“+++” (≥50=+++)
156 (LLLPPPPCPA; listed as Homo sapiens) [compound 156]	“+++” (≥50=+++)
157 (MLLEIPYMAA; listed as Homo sapiens) [compound 157]	“+++” (≥50=+++)
158 (SLIEKYFSV; listed as Homo sapiens) [compound 158]	“++++” (>75%=++++)
159 (SLLDLHTKV; listed as Homo sapiens) [compound 159]	“+++” (≥50=+++)
160 (VLLPDERTISL; listed as Homo sapiens) [compound 160]	“++++” (>75%=++++)
161 (YLPDIIKDQKA; listed as Homo sapiens) [compound 161]	“+++” (≥50=+++)

Results, then the substance that gave them:

Peptide exchange (MHC class I binding score)	Substance
“+++” (≥50=+++)	130 (FLFGEEPSKL; listed as Homo sapiens) [compound 130]
“++” (≥20%=++)	133 (ILDDVSLTHL; listed as Homo sapiens) [compound 133]
“+++” (≥50=+++)	134 (ILLAEGRLVNL; listed as Homo sapiens) [compound 134]
“+++” (≥50=+++)	135 (KLDDTYIKA; listed as Homo sapiens) [compound 135]
“++++” (>75%=++++)	136 (KLFPGFEIETV; listed as Homo sapiens) [compound 136]
“+++” (≥50=+++)	137 (KLGPEGELL; listed as Homo sapiens) [compound 137]
“+++” (≥50=+++)	139 (SIDRNPPQL; listed as Homo sapiens) [compound 139]
“+++” (≥50=+++)	141 (SLTEQVHSL; listed as Homo sapiens) [compound 141]
“++” (≥20%=++)	144 (TAVALLRLL; listed as Homo sapiens) [compound 144]
“+++” (≥50=+++)	149 (ILGTEDLIVEV; listed as Homo sapiens) [compound 149]
“++++” (>75%=++++)	150 (ALFQPHLINV; listed as Homo sapiens) [compound 150]
“++++” (>75%=++++)	151 (ALLDIIRSL; listed as Homo sapiens) [compound 151]
“+++” (≥50=+++)	153 (ALPKEDPTAV; listed as Homo sapiens) [compound 153]
